In paper PMC4431682, “Est10: A Novel Alkaline Esterase Isolated from Bovine Rumen Belonging to the New Family XV of Lipolytic Enzymes” (PLoS ONE, 2015):

Tests used:
Assay in all cases: purified protein
Type in all cases: biochemical, uncultured bacterium
Details in all cases: hydrolysis, conditions of the kinetic assay not stated separately (general pNP assay: 100 mM sodium phosphate pH 8.0, Triton, 40 °C)
[1] = test system: T1, CCCCCCCCCC(=O)Oc1ccc([N+](=O)[O-])cc1
T1 construct: whole 367-residue ORF with its putative signal peptide, N-terminal 6xHis (pET14b), E. coli BL21(DE3) pLysS, Ni-NTA; forward primer codes MIMKKQNFF; GHSQG with Ser189

[2] = test system: T2, CCCC(=O)Oc1ccc([N+](=O)[O-])cc1
T2 construct: whole 367-residue ORF with its putative signal peptide, N-terminal 6xHis (pET14b), E. coli BL21(DE3) pLysS, Ni-NTA; forward primer codes MIMKKQNFF; GHSQG with Ser189

[3] = test system: T3, CC(=O)Oc1ccc([N+](=O)[O-])cc1
T3 construct: whole 367-residue ORF with its putative signal peptide, N-terminal 6xHis (pET14b), E. coli BL21(DE3) pLysS, Ni-NTA; forward primer codes MIMKKQNFF; GHSQG with Ser189

Est10 (uncultured bacterium)
Km [1]: 0.35 (0.06) mM | kcat [1]: 0.72 s⁻¹ | kcat/Km [1]: 2100 M⁻¹ s⁻¹ | Km [2]: 0.16 (0.02) mM | kcat [2]: 3.1 s⁻¹ | kcat/Km [2]: 19000 M⁻¹ s⁻¹ | Km [3]: 0.3 (0.1) mM | kcat [3]: 0.22 s⁻¹ | kcat/Km [3]: 800 M⁻¹ s⁻¹
